B1: C9orf25 (parent)
chain: LARKGSLKNGSMGSPVNQQPKKNN

Variants of: B1
Assay: protein stability index of a GFP-peptide fusion (GPS, HEK-293T) (PSI 1-6); higher = more stable
Conditions: c terminus: a fixed tail appended
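Also: lentivirally expressed fusions sorted by FACS into six bins by GFP to DsRed ratio, PSI derived from sequencing read proportions per bin multiplied by bin number.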

Protein stability index: each site, then its substitutions
G13: V 4.69 | L 4.92 | T 4.79 | I 4.72 | C 5.04 | S 3.98 | D 4.64 | K 4.28 | W 3.66 | Y 4.44 | Q 4.99 | M 4.44 | N 4.97 | P 4.33 | A 4.79 | R 4.36 | H 4.58 | F 4.06 | E 5.23
G10: F 4.25 | A 4.83 | W 3.89 | I 4.76 | M 4.85 | K 4.35 | T 4.81 | Y 4.35 | N 4.99 | C 4.33 | D 4.61 | R 4.12 | V 4 | Q 4.34 | P 4.86 | E 5.04 | S 4.14 | H 4.67 | L 4.65
P15: R 3.8 | D 5.45 | F 4.2 | M 4.66 | V 4.62 | A 4.42 | Y 4.4 | S 4.26 | K 4.34 | N 4.42 | L 4.59 | E 4.53 | C 4.48 | Q 5.26 | H 4.24 | T 4.95 | W 4.27 | G 5 | I 4.66
Q18: Y 4.17 | F 4.4 | H 4.82 | S 4.97 | R 4 | W 3.67 | V 4.64 | A 4.74 | G 4.37 | K 5.08 | M 4.64 | I 4.52 | C 4.6 | D 5.17 | P 4.55 | T 5.01 | L 4.32 | N 4.59 | E 5.18
S6: H 4.43 | Y 4.89 | P 4.59 | W 4.23 | Q 4.76 | I 4.72 | L 4.12 | R 3.99 | E 5.15 | F 4.36 | D 5.1 | T 4.76 | C 4.05 | G 4.64 | V 4.29 | M 4.38 | N 4.69 | K 4.37
L7: M 4.66 | I 4.56 | F 4.2 | A 4.51 | E 3.63 | K 5.32 | D 4.01 | Y 4.17 | W 3.97 | S 4.83 | T 4.71 | G 4.57 | H 4.76 | V 3.39 | Q 5.04 | C 5.02 | N 4.55 | P 4.71 | R 4.14
K21: C 3.98 | P 4.18 | W 2.95 | T 4.39 | H 4.9 | E 4.87 | N 4.65 | R 4.82 | S 4.3 | V 4.32 | F 4.07 | Y 4 | Q 4.48 | I 4.28 | M 4.21 | L 4.25 | A 4.7 | G 4.25 | D 5.25
S14: C 4.06 | E 4.75 | F 4.3 | K 4.83 | P 5.02 | Y 4.25 | R 4.23 | N 4.81 | M 4.97 | A 4.73 | I 4.62 | D 4.96 | L 4.5 | H 4.96 | T 4.42 | Q 4.74 | G 4.8 | V 4.77 | W 4.13
Q19: S 4.89 | C 4.68 | H 4.69 | R 4.45 | G 5.02 | F 4.5 | W 3.79 | K 4.22 | I 4.85 | A 4.92 | M 4.74 | V 4.86 | T 4.74 | D 4.78 | Y 4.58 | L 4.67 | E 4.73 | N 4.72 | P 4.39
K8: F 4.42 | C 4.32 | L 4.12 | Q 4.84 | W 4.1 | I 4.76 | P 4.71 | G 5 | Y 4.11 | H 4.7 | N 5.17 | M 4.45 | D 4.2 | S 4.73 | T 4.53 | A 4.55 | E 4.29 | R 4.57 | V 4.43
K22: T 4.28 | W 3.9 | A 4.51 | N 4.43 | Y 3.81 | D 4.21 | Q 4.82 | C 4.49 | R 4.37 | H 4.02 | I 3.8 | G 4.54 | L 3.81 | V 3.17 | M 4.49 | F 3.56 | P 4.42 | S 4.41 | E 5.05
N23: I 4.61 | H 4.91 | D 5.02 | L 4.04 | E 4.68 | G 4.66 | P 5.24 | A 4.63 | M 3.73 | K 4.61 | C 4.68 | F 4.19
P20: F 4.03 | W 4.1 | K 4.36 | G 4.5 | C 4.54 | A 4.54 | D 5.23 | M 4.56 | L 4.11 | S 4.34 | R 4.25 | E 4.59 | I 4.65 | T 3.92 | Q 4.72 | V 5.07 | H 3.98 | N 4.67 | Y 4.32
N17: P 4.95 | S 4.54 | Y 4.27 | V 4.6 | T 3.98 | C 4.53 | E 5.07 | I 4.72 | G 4.27 | W 3.62 | A 4.25 | M 4.83 | L 4.64 | K 4.47 | F 4.31 | R 4.47 | D 5.12 | H 5.11 | Q 4.74
V16: L 4.64 | C 4.23 | I 4.79 | K 4.14 | A 4.69 | W 4.01 | Q 5 | D 4.85 | Y 3.87 | G 4.75 | H 5.1 | M 4.62 | S 4.68 | E 5.39 | T 4.75 | N 4.4 | R 4.69 | F 3.91 | P 4.89
S11: H 4.15 | C 4.5 | T 4.81 | P 4.67 | M 4.22 | G 5.27 | Y 4.35 | Q 4.29 | L 4.19 | W 4.45 | R 4.61 | F 4.15 | V 4.71 | A 4.44 | K 4.7 | D 4.8 | N 4.88 | I 4.41 | E 4.96
M12: E 5.29 | S 4.94 | N 4.43 | V 4.98 | I 4.42 | P 4.84 | W 4.11 | T 4.74 | C 4.58 | R 4.7 | D 5.06 | L 4.44 | G 4.49 | F 4.56 | H 4.42 | K 5.15 | A 4.42 | Q 4.4 | Y 4.4
N9: Q 4.92 | K 4.17 | A 4.6 | E 5.29 | V 4.42 | F 4.21 | M 4.18 | S 4.94 | T 4.78 | P 4.36 | G 4.74 | R 4.43 | W 3.21 | Y 4.64 | H 4.63 | L 3.67 | I 4.64 | D 5.27 | C 4.46
